Assay results taken from PMC2895659.

Legend:
[1] = target: E1/E2 glycoprotein complex of Jc1/G451R (Jc1 with a single G451R mutation within E2) on HCV particles (hepatitis C virus genotype 2a (J6CF)) (UniProt P26660)
[2] = target: E1/E2 glycoprotein complex of Jc1/mCD81 (Jc1 carrying L216F, V388G and M405T) on HCV particles (hepatitis C virus genotype 2a (J6CF)) (UniProt P26660)

recombinant fusion protein between GST and the human CD81 large extracellular loop (LEL) (domain or fragment)
reduction of luciferase reporter virus infection of Lunet N hCD81 cells after preincubation with 10 µg/ml hCD81 LEL [1]: > 10 fold | reduction of luciferase reporter virus infection of Lunet N hCD81 cells after preincubation with 10 µg/ml hCD81 LEL [2]: > 10 fold
